Results published in US20240254209A1 (published 2024).

What was measured:
[1] = target: T1, Ara h 2 peptide DSYERDPYSPSQDPY; assay: Luminex peptide array
T1 construct: peptide of the Luminex peptide array
T1 peptide: DSYERDPYSPSQDPY
Description: (§1) Peptide microarray. The inventor used peptide arrays to help determine the approximate locations of the antigenic sites targeted by his human IgE mAbs. In collaboration with Dr. Hugh Sampson at Mount Sinai he tested Ara h 2-specific IgE mAbs using a Luminex peptide array technology (Shreffler et al., 2004). […] Several of the Ara h 2 site CR-A-specific IgE mAbs, however, bound strongly to peptide […] at the C-terminus of the allergen protein. Ara h 2 site SP-B-specific antibody 38B7, which competes with all Ara h 2 site CR-B antibodies, bound to two peptides […] and […]. […] In that paper the authors used the fusion protein to define an immunodominant population of IgE antibodies in the sera of peanut allergic subjects, which is the population the inventor defines here as site CR-B, the immunodominant antigenic site of Ara h 2. This region has also been described previously as being an immunodominant target of the Ara h 2 and Ara h 6 IgE antibody response seen in human sera (Chen et al., 2016). These peptides make up the disordered loop between helices 2 and 3 of Ara h 2, the region that differs between Ara h 2.01 and Ara h 2.02 isoforms, not present in the crystal structure due to its high degree of flexibility. […]

[2] = target: T2, Ara h 2 peptide PYSPSQDPYSPSPYD; assay: Luminex peptide array
T2 construct: peptide of the Luminex peptide array
T2 peptide: PYSPSQDPYSPSPYD
Description: as §1

peanut allergen Ara h 3 = target: T3, peanut allergen Ara h 3 (peanut (Arachis hypogaea)); assay: ImmunoCAP, hybridoma supernatant
T3 construct: also called F424
Protocol: (§2) Verification and validation of IgE mAbs peanut allergen specificity. Following the unbiased generation of IgE secreting human hybridomas from peanut allergic subject PBMCs, peanut protein binding and peanut allergen protein specificity was determined. Hybridoma culture supernatant was initially used for this validation. […] Using the available ImmunoCAP components (purified allergen proteins: Ara h 1, F422; Ara h 2, F423; Ara h 3, F424; Ara h 8 F352; Ara h 9 F427), the exact allergen specificity was determined for those which bound Ara h 1, 2, and 3.
(§3) Hybridoma cell culture supernatant was used for initial identification of allergen specificity using ImmunoCAP analysis. Peanut reactivity was first determined using peanut ImmunoCAP. Component analysis identified IgE antibodies specific for Ara h 1, 2, and 3. All antibodies not identified in this table were determined to bind Ara h 6.

peanut allergen Ara h 8 = target: T4, peanut allergen Ara h 8 (peanut (Arachis hypogaea)); assay: ImmunoCAP, hybridoma supernatant
T4 construct: ImmunoCAP component F352; also called F352
Protocol: as §2, §3

peanut allergen Ara h 9 = target: T5, peanut allergen Ara h 9 (peanut (Arachis hypogaea)); assay: ImmunoCAP, hybridoma supernatant
T5 construct: ImmunoCAP component F427; also called F427
Protocol: as §2, §3

B1: human IgE mAb 38B7 (antibody, V domains shown)
VH: QVQLVESGGGVVQPGRSLRLSCVGSGFTFRRDAKYWVRQAPGKGLEWVAAISHDGGEEDYAESVKGRFTISRDNSRETVYLEMNSLRPEDTAVYYCATTRSGWYFDYWGQGALVTVSS
VL: EIVLTQSPATLSLSPGARATLSCRASQSVDTYLAWYQQRRGQSPRLLIYDASKRATGIPARFSGSGSGTDFTLTISSLEPEDFAVYYCQQRNNWRTWTFGQGTKVEIN
notes: human IgE from hybridoma
binding result [1]: binds | binding result [2]: binds | ImmunoCAP kUA/L (peanut allergen Ara h 3): 0.23 kUA/L | ImmunoCAP kUA/L (peanut allergen Ara h 8): 0.15 kUA/L | ImmunoCAP kUA/L (peanut allergen Ara h 9): 0.11 kUA/L
